Measured values taken from patent US12559863B2, “Macrocyclic modulators of disease associated protein misfolding and aggregation” (RESQ BIOTECH, priority 2017, dated 2026).

Molecular target: T1, Aβ42-GFP (Homo sapiens, UniProt P05067)
T1 construct: a chimeric fusion of the human Aβ(1-42) peptide (Aβ42) with GFP; expressed in transfected cells; host or cells: E. coli BL21(DE3)
Experiment: High-throughput sequencing of pSICLOPPS vectors isolated after bacterial sorting for enhanced Aβ42-GFP fluorescence
Settings: for Reads/Total TXXXR reads (%) / Reads/Total pentapeptide reads (%) / Reads/Total peptide reads (%): after the second round of bacterial sorting; for Reads/Total TXXXR reads (%): relative to total TXXXR reads; for Reads/Total pentapeptide reads (%): relative to total pentapeptide reads; for Reads/Total peptide reads (%): relative to total peptide reads; for Number of reads: high-throughput sequencing of isolated pSICLOPPS-NuX1X2X3-X5 vectors after the second round of bacterial sorting for enhanced Aβ42-GFP fluorescence, selected cyclo-TXXXR pentapeptides
Source text: On the other hand, very few bioactive sequences resembling AβC5-34 should exist. […] The peptide-encoding vectors contained in these clones were isolated and the peptide-encoding region of approximately 5.6 million of these plasmids was sequenced using an Ion Torrent high-throughput sequencing platform. […] First, pentapeptides were the dominant peptide species within the sorted pool (FIG. 12D), in agreement with previous observations (FIG. 8G). Second, the most prevalent motif among the selected pentapeptide sequences were TXXXR pentapeptides (˜47% of the selected pentapeptide-encoding pSICLOPPS plasmids; ˜42% of the unique selected pentapeptide sequences) (Table 1), in accordance with previous observations (FIG. 8G). […] At position 2, Thr, Ala, and Val were preferred, while aromatic residues (Phe, Trp, Tyr) were completely excluded from the selected TXXXR peptide pool, in full agreement with our site-directed mutagenesis studies. At the highly variable position 3, the complete absence of the negatively charged amino acids Glu and Asp among the selected sequences was notable (FIG. 12E). […] It is noteworthy, that Lys and Gln residues were practically absent from all positions, while the β sheet-breaking amino acid Pro that is typically included in designed peptide-based inhibitors of amyloid aggregation appeared with strikingly low frequencies (FIG. 12E).
Electrocompetent E. coli BL21(DE3) cells (Novagen, USA) carrying either the expression vector pETSOD1(A4V)-GFP, which produces SOD1(A4V)-GFP under control of the strong bacteriophage T7 promoter, or pETAβ42-GFP, which produces Aβ42-GFP under control of the T7 promoter, were co-transformed with the combined pSICLOPPS-NuX1X2X3-X5 vector library. Approximately 10^8 transformants carrying both the vector library and either pETSOD1(A4V)-GFP or pETAβ42-GFP vectors were harvested, pooled together, and grown in Luria-Bertani (LB) liquid medium containing either 0.005% (pETSOD1(A4F)-GFP) or 0.002% (pETAβ42-GFP) L-arabinose—the inducer of cyclic peptide production—at 37° C. with shaking. When the optical density at 600 nm (OD600) of the bacterial culture was about 0.5, 0.01 (pETSOD1(A4F)-GFP) or 0.1 (pETAβ42-GFP) mM isopropyl-β-D-thiogalactoside (IPTG) was added to the medium to induce overexpression of the reporter. […] The isolated cells were re-grown and screened for additional rounds in an identical manner until the desired enrichment in high-fluorescence clones was achieved.
For the characterization of the initial libraries, a combined pSICLOPPS-NuX1X2X3-X5 vector library was prepared containing approximately equal amounts of each one of the tetra-, penta- and hexapeptide sub-libraries. These samples were digested with NcoI and BsrGI and the resulting ˜250 bp product that contained the variable peptide-encoding region was isolated. High-throughput sequencing analysis was performed using an Ion Torrent high-throughput sequencing platform. From the obtained data, all the sequences with mismatches outside of the variable peptide-encoding region were removed, and only the 12-, 15- or 18-bp-long peptide-encoding sequences were subjected to further analysis. The libraries of the selected cyclic peptides that enhance either SOD1(A4V)-GFP or Aβ42-GFP fluorescence were sequenced in a similar manner, with the only exception being that all sequences including stop codons were discarded from subsequent analysis.

| Substance | Reads/Total TXXXR reads (%) | Reads/Total pentapeptide reads (%) | Reads/Total peptide reads (%) | Number of reads |
| --- | --- | --- | --- | --- |
| AβC5-245 (TTRFR; cyclic) | 0.019% | 0.009% | 0.008% | 364 |
| AβC5-248 (TTTHR; cyclic) | 0.018% | 0.008% | 0.007% | 339 |
| AβC5-252 (TVIWR; cyclic) | 0.017% | 0.008% | 0.007% | 331 |
| AβC5-253 (TTWFR; cyclic) | 0.017% | 0.008% | 0.007% | 327 |
| AβC5-255 (TTSRR; cyclic) | 0.017% | 0.008% | 0.007% | 325 |
| AβC5-258 (TTSCR; cyclic) | 0.016% | 0.007% | 0.007% | 301 |
| AβC5-260 (TTWTR; cyclic) | 0.016% | 0.007% | 0.007% | 295 |
| AβC5-262 (TTSSR; cyclic) | 0.015% | 0.007% | 0.006% | 286 |
| AβC5-263 (THLAR; cyclic) | 0.015% | 0.007% | 0.006% | 284 |
| AβC5-264 (TSGAR; cyclic) | 0.015% | 0.007% | 0.006% | 282 |
| AβC5-266 (TTLRR; cyclic) | 0.014% | 0.007% | 0.006% | 274 |
| AβC5-270 (TATWR; cyclic) | 0.014% | 0.007% | 0.006% | 266 |
| AβC5-272 (TCMWR; cyclic) | 0.013% | 0.006% | 0.006% | 254 |
| AβC5-275 (TAHVR; cyclic) | 0.013% | 0.006% | 0.005% | 249 |
| AβC5-276 (TSWAR; cyclic) | 0.013% | 0.006% | 0.005% | 249 |
| AβC5-278 (TTWLR; cyclic) | 0.013% | 0.006% | 0.005% | 241 |
| AβC5-291 (TTLDR; cyclic) | 0.011% | 0.005% | 0.005% | 213 |
| AβC5-294 (TTPHR; cyclic) | 0.011% | 0.005% | 0.005% | 207 |
| AβC5-298 (TTRGR; cyclic) | 0.011% | 0.005% | 0.004% | 201 |

| Substance | Reads/Total TXXXR reads (%) | Reads/Total pentapeptide reads (%) | Reads/Total peptide reads (%) | Number of reads |
| --- | --- | --- | --- | --- |
| AβC5-299 (TTVGR; cyclic) | 0.011% | 0.005% | 0.004% | 200 |
| AβC5-301 (TTTRR; cyclic) | 0.010% | 0.005% | 0.004% | 191 |
| AβC5-304 (TSINR; cyclic) | 0.010% | 0.004% | 0.004% | 182 |
| AβC5-305 (TTADR; cyclic) | 0.010% | 0.004% | 0.004% | 181 |
| AβC5-315 (TTSER; head-to-tail cyclic) | 0.008% | 0.004% | 0.003% | 158 |
| AβC5-316 (TTCAR; head-to-tail cyclic) | 0.008% | 0.004% | 0.003% | 157 |
| AβC5-317 (TTAWR; head-to-tail cyclic) | 0.008% | 0.004% | 0.003% | 156 |
| AβC5-320 (TTVER; head-to-tail cyclic) | 0.008% | 0.004% | 0.003% | 150 |
| AβC5-321 (TTTFR; head-to-tail cyclic) | 0.008% | 0.004% | 0.003% | 148 |
| AβC5-323 (TAVDR; head-to-tail cyclic) | 0.008% | 0.004% | 0.003% | 147 |
| AβC5-325 (TVWIR; head-to-tail cyclic) | 0.008% | 0.004% | 0.003% | 144 |
| AβC5-329 (TTVRR; head-to-tail cyclic) | 0.007% | 0.003% | 0.003% | 141 |
| AβC5-333 (THVRR; head-to-tail cyclic) | 0.007% | 0.003% | 0.003% | 137 |
| AβC5-343 (TNLDR; head-to-tail cyclic) | 0.007% | 0.003% | 0.003% | 125 |
| AβC5-344 (TTPGR; head-to-tail cyclic) | 0.007% | 0.003% | 0.003% | 125 |
| AβC5-348 (TTLTR; head-to-tail cyclic) | 0.006% | 0.003% | 0.003% | 119 |
| AβC5-355 (TATVR; head-to-tail cyclic) | 0.006% | 0.003% | 0.003% | 115 |
| AβC5-359 (TAMWR; head-to-tail cyclic) | 0.006% | 0.003% | 0.002% | 110 |
